Experimental findings from US20090275511A1 (IPSEN PHARMA S A S, published 2009) are described below.

Numbered stars: 1 amine (or outer) side, 2 acyl side, 3 side chain; on linkers, the order of the positions; unused ones are H or OH. Square brackets hold non-standard residues; d marks the D form. Glu(NH-hexyl) = N5-hexyl-L-glutamine (glutamic acid gamma-hexylamide), CCCCCCNC(=O)CC[C@H](N[*:1])C(=O)[*:2]; 1‑Apc = not defined here; Aib = CC(C)(N)C(=O)O

The term Ki denotes a measure of affinity in units of concentration, obtained from inhibition or displacement. High values mean weaker binding, low ones tighter binding.

This assay deals with T1, human GH secretagogue receptor (human, UniProt Q92847 1-366).
T1 construct: whole, on cells; the Ca2+ assay used the whole cells; also called hGHS-R; ghrelin receptor
The assay can be described thus: competition with 0.05 nM (125I)ghrelin on membranes of CHO-K1 cells expressing hGHS-R, filtration. The protocol:
The homogenates were washed twice by centrifugation (39,000 g/10 minutes) and the final pellets were resuspended in about 50 mM Tris-HCl containing 2.5 mM MgCl₂ and 0.1% bovine serum albumin (BSA). For the selected assay, aliquots of approximately 0.4 ml were incubated with 0.05 nM (¹²⁵I)ghrelin (˜2000 Ci/mmol; Perkin Elmer Life Sciences®, Boston, Mass., U.S.A.) with and without 0.05 ml of unlabeled competing test peptide.

T1 sequence (Q92847 whole entry): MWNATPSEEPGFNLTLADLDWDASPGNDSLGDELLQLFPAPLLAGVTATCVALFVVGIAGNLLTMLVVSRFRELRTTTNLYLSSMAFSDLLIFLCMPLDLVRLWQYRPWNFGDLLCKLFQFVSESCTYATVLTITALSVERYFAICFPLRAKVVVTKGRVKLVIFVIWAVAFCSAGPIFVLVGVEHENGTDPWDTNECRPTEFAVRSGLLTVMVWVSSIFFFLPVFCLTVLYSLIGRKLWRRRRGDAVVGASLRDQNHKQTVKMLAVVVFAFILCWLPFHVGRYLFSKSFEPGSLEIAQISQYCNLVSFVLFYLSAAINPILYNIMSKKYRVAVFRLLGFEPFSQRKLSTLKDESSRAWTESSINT

B1: (Ac-Inp^1, Aib^2,10, Glu(NH-hexyl)^3)hGhrelin(1-28)-NH2 (peptide)
peptide: XXEFLSPEHXRVQQRKESKKPPAKLQPR
HELM: PEPTIDE1{[ac].[O=C(C1CCN([*:1])CC1)[*:2]].[Aib].[CCCCCCNC(=O)CC[C@H](N[*:1])C(=O)[*:2]].F.L.S.P.E.H.[Aib].R.V.Q.Q.R.K.E.S.K.K.P.P.A.K.L.Q.P.R.[am]}$$$$V2.0
SMILES: CCCCCCNC(=O)CC[C@H](NC(=O)C(C)(C)NC(=O)C1CCN(C(C)=O)CC1)C(=O)N[C@@H](Cc1ccccc1)C(=O)N[C@@H](CC(C)C)C(=O)N[C@@H](CO)C(=O)N1CCC[C@H]1C(=O)N[C@@H](CCC(=O)O)C(=O)N[C@@H](Cc1c[nH]cn1)C(=O)NC(C)(C)C(=O)N[C@@H](CCCNC(=N)N)C(=O)N[C@H](C(=O)N[C@@H](CCC(N)=O)C(=O)N[C@@H](CCC(N)=O)C(=O)N[C@@H](CCCNC(=N)N)C(=O)N[C@@H](CCCCN)C(=O)N[C@@H](CCC(=O)O)C(=O)N[C@@H](CO)C(=O)N[C@@H](CCCCN)C(=O)N[C@@H](CCCCN)C(=O)N1CCC[C@H]1C(=O)N1CCC[C@H]1C(=O)N[C@@H](C)C(=O)N[C@@H](CCCCN)C(=O)N[C@@H](CC(C)C)C(=O)N[C@@H](CCC(N)=O)C(=O)N1CCC[C@H]1C(=O)N[C@@H](CCCNC(=N)N)C(N)=O)C(C)C
notes: Synthetic analog of human ghrelin(1-28)
Turning to B1, the affinity corresponds to a Ki of 370 nM.
With Ac-[1‑Apc][Aib][Glu(NH-hexyl)]FLSPEH[Aib]RVQQRKESKKPPAKLQPR-NH2 (reading uncertain, Synthetic analog of human ghrelin(1-28)) [(Ac-1-Apc^1, Aib^2,10, Glu(NH-hexyl)^3)hGhrelin(1-28)-NH2] the figure was 40 nM.
